Laboratory results: US6428997B1, “Aminopeptidase derived from Bacillus licheniformis and process for preparation of natural type proteins” (LG Chemical Ltd., priority 1997, dated 2002)

Columns and labels:
[1] = test system: methionyl oligopeptide of SEQ. ID. NO: 1; assay: Kinetic parameters of aminopeptidase, methionyl oligopeptide substrate; format: biochemical; conditions: 37° C.
Description: (§1) In order to compare substrate specificity of aminopeptidase of this invention, 2 kinds of substrate were used. In detail, one was synthetic substrates of p-nitroanilide derivative and purchased from Sigma, USA and the other was oligopeptide such as methionyl oligopeptide of SEQ. ID. NO: 1 which have amino acid sequence similar to N-terminus of methionyl HGH and leucyl oligopeptide of SEQ. ID. NO: 2. The oligopeptides of this invention were synthesized.
(§2) In addition oligopeptide was also used as substrate to perform enzyme reaction by using substrate of known concentration and aminopeptidase in buffer containing 0.1M Tris-Cl, 0.1M NaCl to make 500 μl reaction volume. The enzyme reaction was performed at 37° C. and after 5 and 10 min 250 μl of reaction mixture was adopted and added 70% acetic acid to stop the reaction. The reaction mixture was analyzed by performing HPLC chromatography.
(§3) In reaction condition mentioned above, initial velocity of enzyme reaction was measured with varying the substrate concentration. Lineweaver-Burk plot was used to determine Km value and Maximum reaction velocity of aminopeptidase from Bacillus licheniformis. In addition kcat and kcat/Km was determined by using Km value and maximum reaction velocity described above.

[2] = test system: leucyl oligopeptide of SEQ. ID. NO: 2; assay: Kinetic parameters of aminopeptidase, leucyl oligopeptide substrate; format: biochemical; conditions: 37° C.
Description: as §1, §2, §3

B1: Aeromonas proteolytica aminopeptidase: Aeromonas proteolytica (Vibrio prozeolytica) aminopeptidase (Korean Patent Publication NO. 94-14804), comparison enzyme (protein)
chain: MPPITQQATVTAWLPQVDASQITGTISSLESFTNRFYTTTSGAQASDWIASEWQALSASLPNASVKQVSHSGYNQKSVVMTITGSEAPDEWIVIGGHLDSTIGSHTNEQSVAPGADDDASGIAAVTEVIRVLSENNFQPKRSIAFMAYAAEEVGLRGSQDLANQYKSEGKNVVSALQLDMTNYKGSAQDVVFITDYTDSNFTQYLTQLMDEYLPSLTYGFDTCGYACSDHASWHNAGYPAAMPFESKFNDYNPRIHTTQDTLANSDPTGSHAKKFTQLGLAYAIEMGSATGDTPTPGNQ
[1]
  Km: 956 µM
  kcat: 3.23 s⁻¹
[2]
  Km: 336 µM
  kcat: 70.29 s⁻¹
